Results: paper PMC12212138, “Crystal structure and mutagenesis of a nucleic acid–binding BRCT domain in human PARP4”
Substitutions are numbered along the chain they refer to.

Legend:
Experiment in all cases: EMSA; 20 nM probe; FP: 50 mM Tris pH 7.5, 50 mM NaCl, 1 mM MgCl2, 0.05% NP40, 2 mM DTT, 5% glycerol, 25 ug/ml BSA, room temp 30 min; EMSA: 50 mM Tris pH 7.5, 50 mM NaCl, 4% Ficoll PM400, 0.05% NP40, 2 mM DTT, 0-18 uM protein, room temp 30 min, gel at 4 C
Details in all cases: protein: recombinant; tags: N-terminal His-SUMO removed by TEV; label: 5'-6-FAM; predicted intramolecular fold
PARP4 BRCT WT = target: T1, PARP4 BRCT WT (human, UniProt Q9UKK3 1-100)
T1 sequence: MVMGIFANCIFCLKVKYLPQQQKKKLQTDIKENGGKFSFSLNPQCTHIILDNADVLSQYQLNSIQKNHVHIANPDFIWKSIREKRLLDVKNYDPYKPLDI

PARP4 BRCT F39Q = target: T2, PARP4 BRCT F39Q (human, UniProt Q9UKK3 1-100, F39Q)
T2 sequence: T1 sequence with F39Q

PARP4 BRCT K31Q = target: T3, PARP4 BRCT K31Q (human, UniProt Q9UKK3 1-100, K31Q)
T3 sequence: T1 sequence with K31Q

B1: vtRNA1-3 (structured_RNA)
RNA: GGCUGGCUUUAGCUCAGCGGUUACUUCGCGUGUCAUCAAACCACCUCUCUGGGUUGUUCGAGACCCGCGGGCGCUCUCCAGCCCUCUU
- Kd (PARP4 BRCT WT): 500 ± 200 nM
- Kd (PARP4 BRCT F39Q): 900 ± 500 nM
- Kd (PARP4 BRCT K31Q): 3000 ± 1000 nM
